Test results taken from doi:10.1101/490516, “Molecular mechanism of the Orai channel activation” (bioRxiv, 2018).

Biological target: the molecule itself
Test: crystal structure; 4.5 Å, molecular replacement with the closed Orai structure 4HKR; protein in NG/NM with POPC:POPE:POPG; sitting drop, 0.05 M NaCl, 0.02 M MgCl2, 0.1 M sodium citrate pH 6.5, 16%-20% PEG400, 17 °C

B1: dOrai-P288L channel (Drosophila melanogaster Orai, amino acids 132-341, C224S, C283T, P288L) (domain or fragment, UniProt Q9U6B8 132-341, looked up)
chain: SMSQSGEDLHSPTYLSWRKLQLSRAKLKASSKTSALLSGFAMVAMVEVQLDHDTNVPPGMLIAFAICTTLLVAVHMLALMISTCILPNIETVSNLHSISLVHESPHERLHWYIETAWAFSTLLGLILFLLEIAILCWVKFYDLSPPAAWSATVVLILVMIIFMAFAIHFYRSLVSHKYEVTVSGIRELEMLKEQMEQDHLEHHNNIRNNG
notes: Orai, Drosophila melanogaster, Uniprot Q9U6B8, amino acid residues 132-341 with C224S, C283T and P288L; codons optimized for Homo sapiens; pEG-BacMam vector; PreScission site and eGFP at the C-terminus, eGFP cleaved by 3C protease on the Ni-NTA beads; No His tag is described, though Ni-NTA beads were used; it probably left with the eGFP; also called dOrai1-P288L; open Orai channel; source: …
- stoichiometry N: 6
